Experimental data taken from PMC6614540.

How the values were obtained:
[1] = target: Gh-TDH D78A mutant (Grimontia hollisae); experiment: native gel or EMSA; native PAGE, 10% polyacrylamide gel, no SDS, 4 °C, running buffer 90 mM Tris-base, 2.5 mM EDTA, 80 mM boric acid pH 8.0, 90 V for 3 h, Coomassie stain
[2] = target: Gh-TDH F159D mutant (Grimontia hollisae)
[3] = target: Gh-TDH F159D mutant (Grimontia hollisae); experiment: AUC; 1 mg/mL protein in 20 mM Tris-HCl pH 7.2, 42,000 rpm, 20 °C, 280 nm; c(s) distribution and apparent molecular mass
[4] = target: Gh-TDH F159D mutant (Grimontia hollisae); experiment: native gel or EMSA; native PAGE, 10% polyacrylamide gel, no SDS, 4 °C, running buffer 90 mM Tris-base, 2.5 mM EDTA, 80 mM boric acid pH 8.0, 90 V for 3 h, Coomassie stain
[5] = target: Gh-TDH Y53D mutant (Grimontia hollisae)
[6] = target: Gh-TDH Y53D mutant (Grimontia hollisae); experiment: AUC; 1 mg/mL protein in 20 mM Tris-HCl pH 7.2, 42,000 rpm, 20 °C, 280 nm; c(s) distribution and apparent molecular mass
[7] = target: Gh-TDH Y53D mutant (Grimontia hollisae); experiment: native gel or EMSA; native PAGE, 10% polyacrylamide gel, no SDS, 4 °C, running buffer 90 mM Tris-base, 2.5 mM EDTA, 80 mM boric acid pH 8.0, 90 V for 3 h, Coomassie stain
[8] = target: Gh-TDH Y53D/F159D double mutant (Grimontia hollisae)
[9] = target: Grimontia hollisae thermostable direct hemolysin, wild type (Grimontia hollisae); experiment: AUC; 1 mg/mL protein in 20 mM Tris-HCl pH 7.2, 42,000 rpm, 20 °C, 280 nm; c(s) distribution and apparent molecular mass

Substance: Gh-TDH D78A mutant (natural protein)
- stoichiometry N [1]: 4

Substance: Gh-TDH F159D mutant (natural protein)
- hemolytic activity on rabbit erythrocytes, decrease against Gh-TDH^WT [2]: 10 fold
- stoichiometry N [3]: 2
- stoichiometry N [4]: 2

Substance: Gh-TDH Y53D mutant (natural protein)
- hemolytic activity on rabbit erythrocytes, decrease against Gh-TDH^WT [5]: 20 fold
- stoichiometry N [6]: 2
- stoichiometry N [7]: 2

Substance: Gh-TDH Y53D/F159D double mutant (natural protein)
- hemolytic activity on rabbit erythrocytes, drop against Gh-TDH^WT [8]: 200 fold

Substance: Grimontia hollisae thermostable direct hemolysin, wild type (natural protein)
- stoichiometry N [9]: 4
